# Data as given in paper PMC5609567 (Biochemical Pharmacology, 2017).
# What was measured:
# Assay in all cases: Radioligand binding
# E348A RAMP2/CLR = molecular target: T1, E348A RAMP2/CLR (Homo sapiens, UniProt O60895+Q16602, E348A); details: 125I-AM bound (span of displacement curve) normalized to WT, n = 3
# T1 construct: expressed in transfected cells; host or cells: Cos7 (membranes)
# Protocol: (§1) This was performed on membranes made from transfected Cos7 cells, essentially as described elsewhere. […] Incubations were terminated by centrifugation.
# (§2) Radioligand binding data were analysed in Graphpad Prism as described for the cAMP assays.
# F349A RAMP2/CLR = molecular target: T2, F349A RAMP2/CLR (Homo sapiens, UniProt O60895+Q16602, F349A); details: 125I-AM bound (span of displacement curve) normalized to WT, n = 3
# T2 construct: expressed in transfected cells; host or cells: Cos7 (membranes)
# T2 sequence (Q16602 23-461 F349A): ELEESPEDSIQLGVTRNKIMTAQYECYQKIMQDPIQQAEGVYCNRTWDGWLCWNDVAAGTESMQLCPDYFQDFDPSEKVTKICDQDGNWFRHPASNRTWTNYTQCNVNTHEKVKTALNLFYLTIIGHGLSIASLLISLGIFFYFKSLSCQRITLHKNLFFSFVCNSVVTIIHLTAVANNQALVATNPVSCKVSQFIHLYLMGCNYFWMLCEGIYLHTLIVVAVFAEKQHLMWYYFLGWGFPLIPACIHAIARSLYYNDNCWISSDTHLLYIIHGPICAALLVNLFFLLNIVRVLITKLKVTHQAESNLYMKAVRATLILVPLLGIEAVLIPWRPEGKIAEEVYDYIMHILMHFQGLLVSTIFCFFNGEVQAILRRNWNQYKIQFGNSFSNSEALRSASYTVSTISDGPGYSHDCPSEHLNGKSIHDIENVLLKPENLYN
# T2 sequence (O60895 43-175): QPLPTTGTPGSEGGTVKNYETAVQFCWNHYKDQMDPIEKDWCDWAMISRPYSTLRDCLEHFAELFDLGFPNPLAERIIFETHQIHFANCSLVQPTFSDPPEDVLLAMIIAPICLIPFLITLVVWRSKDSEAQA
# Protocol: as §1, §2
# H374A RAMP1/CLR = molecular target: T3, H374A RAMP1/CLR (Homo sapiens, UniProt O60894+Q16602, H374A); details: H374A CLR/RAMP1, Cos7 membranes
# T3 construct: expressed in transfected cells; host or cells: Cos7 (membranes)
# T3 sequence (Q16602 23-461 H374A): as the sequence (Q16602 23-461 F349A) above, with A327F, H352A counted along it
# T3 sequence (O60894 27-148): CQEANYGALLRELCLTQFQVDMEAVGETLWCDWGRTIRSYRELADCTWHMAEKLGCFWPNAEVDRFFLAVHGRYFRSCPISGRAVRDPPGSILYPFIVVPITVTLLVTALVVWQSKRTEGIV
# Protocol: as §1, §2
# M230A RAMP2/CLR = molecular target: T4, M230A RAMP2/CLR (Homo sapiens, UniProt O60895+Q16602, M230A); details: 125I-AM bound (span of displacement curve) normalized to WT, n = 3
# T4 construct: expressed in transfected cells; host or cells: Cos7 (membranes)
# T4 sequence (Q16602 23-461 M230A): as the sequence (Q16602 23-461 F349A) above, with M208A, A327F counted along it
# T4 sequence (O60895 43-175): as the sequence (O60895 43-175) above
# Protocol: as §1, §2
# N305A RAMP2/CLR = molecular target: T5, N305A RAMP2/CLR (Homo sapiens, UniProt O60895+Q16602, N305A); details: 125I-AM bound (span of displacement curve) normalized to WT, n = 3
# T5 construct: expressed in transfected cells; host or cells: Cos7 (membranes)
# T5 sequence (Q16602 23-461 N305A): as the sequence (Q16602 23-461 F349A) above, with N283A, A327F counted along it
# T5 sequence (O60895 43-175): as the sequence (O60895 43-175) above
# Protocol: as §1, §2
# WT RAMP1/CLR = molecular target: T6, WT RAMP1/CLR (Homo sapiens, UniProt O60894+Q16602); details: WT CLR/RAMP1, Cos7 membranes
# T6 construct: expressed in transfected cells; host or cells: Cos7 (membranes)
# T6 sequence (Q16602 23-461): as the sequence (Q16602 23-461 F349A) above, with A327F counted along it
# T6 sequence (O60894 27-148): as the sequence (O60894 27-148) above
# Protocol: as §1, §2
# V198A RAMP2/CLR = test system: V198A RAMP2/CLR; set-up: species or system human; details: 125I-AM bound (span of displacement curve) normalized to WT, n = 3
# Protocol: as §1
# Radioligand binding data were analysed in Graphpad Prism as described for the cAMP assays. […] Thus for each mutant, the total specific binding relative to WT was calculated from the span values and the 95% confidence limits were calculated. This relies on the Bmax value not changing; while this is consistent with our ELISA data, we cannot rule out a contribution to […] arising from a small change in receptor expression.
# T1 sequence (Q16602 23-461 E348A): as the sequence (Q16602 23-461 F349A) above, with E326A, A327F counted along it
# T1 sequence (O60895 43-175): as the sequence (O60895 43-175) above
substance,measurement,setting,value
[^125I]-human (13–52) iodotyrosyl^52adrenomedullin [125I-AM],% Ligand bound,E348A RAMP2/CLR,147.9 ± 2.9 %
same,% Ligand bound,F349A RAMP2/CLR,132.3 ± 4.3 %
same,specific binding of 125I-AM,H374A RAMP1/CLR,5243 ± 112 dpm/mg
same,% Ligand bound,M230A RAMP2/CLR,109.4 ± 3.7%
same,% Ligand bound,N305A RAMP2/CLR,62.7 ± 4.7 %
same,specific binding of 125I-AM,WT RAMP1/CLR,78 ± 208 dpm/mg
same,% Ligand bound,V198A RAMP2/CLR,116.2 ± 3.7 %
